In patent US8133683B2, “Methods for detecting biomolecules in a sample” (Taipei Medical University, priority 2009, dated 2012):
“Also recorded” adds a separate entry of the source. Primed or numbered codes have the meaning given here. Ends that are not written are not given here. * marks the point of attachment. FITC = O=C1OC2(c3ccc(O)cc3Oc3cc(O)ccc32)c2ccc(NC(=S)*)cc21; FITC′ = fluorescein isothiocyanate label

Columns and labels:
[1] = Capturing capacity and rate of MD-Charcoal for FITC-labeled molecules; conditions: for Remaining fluorescence intensities: 3 μM in 60 μl, Ex485/Em535, Gain 35, means±SD (n=3)
Protocol: Aliquots of FITC-labeled molecules (3 μM in 60 μl) mixed with equal volume of reagent B (2 mM EDTA, 0.5 M Hepes-pH 8.0) were treated with MD-Charcoal (200 μl/well) at room temperature for 1, 5, or 10 minutes.
Data were analyzed by one-way ANOVA and Tukey-HSD multiple range test, and presented as means±SD (n=3). Different successive superscript represents significant difference at p<0.05. The background value from empty well served as blank.

[2] = system: anti-FF15 antiserum; test: CPBA, control serum anti-FF15 antiserum; type: binding, rabbit; conditions: FIG. 2B
Protocol: (§1) Rabbit sera (30 μl/well) in microplate were 2-fold serially diluted in PBS buffer (137 mM NaCl, 2.7 mM KCl, 10 mM Na2HPO4, 2 mM KH2PO4, pH 7.4). After an aliquot of 30 μl of freshly prepared reagent-A (6 μM FITC-KY15, 100 mM Hepes-pH 7.5, and 2 mM EDTA) was added to each well, the microplate was incubated at 37° C. for 50 minutes. An aliquot of 60 μl of reagent B (0.5 M Hepes-pH 8.0, and 2 mM EDTA) was then added to each well to adjust pH to 8.0 for optimal fluorescence detection. To remove all the free fluorescent peptides, MD-Charcoal suspension (200 μl per well) was added, and the mixture was incubated at room temperature for 5 minutes. […] The binding capacity of antiserum for the fluorescent peptide probe was expressed as fluorescence intensity per well. All experiments were performed in triplicates for each datum point and the data were presented as means±SD.

[3] = molecular target: T1, human serum albumin (HSA) (Homo sapiens, UniProt P02768); test: CPBA, detecting HSA; type: binding; conditions: FIG. 4
T1 construct: purchased Sigma-Aldrich A3782
Protocol: (§2) The stock solutions of HSA, ovalbumin, and BGG were prepared as 125 μg/ml in HBS buffer (10 mM Hepes-pH 7.0, and 0.15 M NaCl). Aliquots of 30 μl of each protein placed in microplate wells were 2-fold serial diluted in HBS buffer. After an aliquot of 30 μl of freshly prepared reagent-A (6 μM FITC-RD18/FITC-KY15, 100 mM Hepes-pH 7.5, and 2 mM EDTA) was added to each well, the microplate was incubated at 37° C. for 30 minutes. An aliquot of 60 μl of reagent B (0.5 M Hepes-pH 8.0, and 2 mM EDTA) was then added to each well to adjust pH to 8.0 for optimal fluorescence detection. To remove all the free fluorescent peptides, MD-Charcoal suspension (200 μl per well) was added and incubated at room temperature for 5 minutes. […] Background level of fluorescence intensities was measured by replacing protein samples with HBS buffer. The binding capacities of antigens for the fluorescent peptide probes were expressed as net fluorescence intensity per well. All experiments were performed at least in triplicates for each datum point and the data were presented as means±SD.

[4] = CPBA, control non-immune rabbit serum; type: binding; conditions: FIG. 2B
Protocol: as §1

[5] = system: anti-KY15 antibody; test: Charcoal-sorbent peptide binding assay (CPBA), detecting anti-KY15 antibody; conditions: FIG. 2B, anti-KY15 rabbit antiserum
Protocol: as §1

[6] = molecular target: T2, ovalbumin (Gallus gallus, UniProt P01012); test: CPBA, control protein ovalbumin; type: binding, chicken; conditions: FIG. 4
T2 construct: ovalbumin (#A5503; from chicken egg white; 99% in purity); purchased Sigma-Aldrich A5503; host or cells: chicken egg white
T2 sequence (P01012 1-386): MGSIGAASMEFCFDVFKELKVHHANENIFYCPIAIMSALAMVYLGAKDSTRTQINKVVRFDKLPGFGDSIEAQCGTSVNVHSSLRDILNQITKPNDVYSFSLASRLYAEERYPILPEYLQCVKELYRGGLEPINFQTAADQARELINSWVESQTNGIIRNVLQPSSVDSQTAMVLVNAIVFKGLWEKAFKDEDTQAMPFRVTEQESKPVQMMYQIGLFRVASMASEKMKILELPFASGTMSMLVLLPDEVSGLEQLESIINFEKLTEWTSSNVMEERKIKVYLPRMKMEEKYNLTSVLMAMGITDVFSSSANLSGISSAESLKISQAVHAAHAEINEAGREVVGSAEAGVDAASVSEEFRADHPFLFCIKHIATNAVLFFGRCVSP
Protocol: as §2

[7] = system: bovine gamma globulin (BGG); test: CPBA, control protein bovine gamma globulin; type: binding; conditions: FIG. 4
Protocol: as §2

Substance | Remaining fluorescence intensities (% of No Treatment) ([1]; MD-Charcoal treatment 1 min) | Remaining fluorescence intensities ([1]; MD-Charcoal treatment 1 min) | Remaining fluorescence intensities (% of No Treatment) ([1]; MD-Charcoal treatment 5 min) | Remaining fluorescence intensities ([1]; MD-Charcoal treatment 5 min) | Remaining fluorescence intensities (% of No Treatment) ([1]; MD-Charcoal treatment 10 min) | Remaining fluorescence intensities ([1]; MD-Charcoal treatment 10 min) | Affinity of anti-FF15 antiserum for the peptide probe [2] | Binding of peptide probe with HSA [3] | Affinity of non-immune rabbit serum for the peptide probe [4] | Binding of peptide probe with anti-KY15 antibody [5] | Interaction of ovalbumin with peptide probe [6] | Interaction of bovine gamma globulin with peptide probe [7] | Specificity for albumin compared to control proteins, ovalbumin and bovine gamma globulin [3]
FITC-KY15: N-terminal FITC-labeled peptide KY15, amino acid sequence KSVGRDEREDITYTY; peptide probe for anti-KY15 antibody ({FITC}-KSVGRDEREDITYTY) | (0.6%) | 1,320 ± 410^2b | (0.5%) | 1,037 ± 33^2b | (0.4%) | 943 ± 29^2b | did not show affinity | did not have affinity | did not show affinity | specific binding; also recorded: can be detected |  |  | 
FITC-RD18: N-terminal FITC-labeled peptide RD18, amino acid sequence RLIEDICLPRWGCLWEDD; albumin-specific peptide probe ({FITC′}-RLIEDICLPRWGCLWEDD; cysteine pairing not given here) |  |  |  |  |  |  |  | linearly dose-dependent |  |  | did not interact | did not interact | highly specific
